Values quoted from earlier work in paper doi:10.1101/2022.06.02.22275920v1, “Glucagon/GLP-1 receptor co-agonist NNC9204-1177 reduced body weight in adults with overweight or obesity but was associated with safety issues” (medRxiv, 2022).

Details: type 2 diabetes; 1.0 mg dose level
Text: Indeed, GLP-1 RAs are known to have chronotropic effects; for example, increases in pulse rate have been reported in participants with type 2 diabetes in a MAD trial with semaglutide and in trials with dulaglutide and a dual glucose-dependent insulinotropic polypeptide (GIP) and GLP-1 RA [33]. However, the increase in heart rate for NN1177 far exceeds that observed for semaglutide; for example in the SUSTAIN 6 cardiovascular outcomes trial for semaglutide in type 2 diabetes, a placebo ...

## semaglutide
  placebo-corrected heart rate increase: 3.2 bpm
